Legend:
A3A(E72A) [1] = target: T1, A3A(E72A) (Homo sapiens, UniProt P31941 1-199, E72A); experiment: fluorescence anisotropy; pH 6.0; 50 mM MES pH 6.0, 100 mM NaCl, 0.5 mM TCEP, room temperature overnight, 10 nM TAMRA-oligo; competition with 300 nM A3A(E72A); pH series: acetate 4.0-5.0, MES 5.5-6.5, HEPES 7.0-8.0, Tris 8.5-9.0; conditions: protein: recombinant; tags: His6-SUMO removed by Ulp1 (untagged); label: 5' TAMRA; hairpin
A3A(E72A) [2] = target: T1, A3A(E72A); experiment: fluorescence anisotropy; pH 5.5; 50 mM MES pH 6.0, 100 mM NaCl, 0.5 mM TCEP, room temperature overnight, 10 nM TAMRA-oligo; competition with 300 nM A3A(E72A); pH series: acetate 4.0-5.0, MES 5.5-6.5, HEPES 7.0-8.0, Tris 8.5-9.0; conditions: protein: recombinant; tags: His6-SUMO removed by Ulp1 (untagged); label: 5' TAMRA

T1 sequence (P31941 whole entry E72A): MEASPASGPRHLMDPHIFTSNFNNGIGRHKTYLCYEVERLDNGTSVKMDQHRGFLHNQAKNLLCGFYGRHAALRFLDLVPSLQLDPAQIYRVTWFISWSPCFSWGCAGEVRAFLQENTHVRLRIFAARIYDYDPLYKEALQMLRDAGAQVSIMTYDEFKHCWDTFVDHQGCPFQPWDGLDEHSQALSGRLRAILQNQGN

Binder GCCATCAAAAGATGGG (structured_DNA) [Hairpin-AAA] has a Kd (A3A(E72A) [1]) of 0.676 ± 0.399 µM.

With AAAATTCAAAAAA (ssDNA) [Poly A-TTC (pH series, 4A-TTC-6A)] the Kd (A3A(E72A) [2]) was 0.068 ± 0.003 µM.

Reference: PMC5951847, “Substrate sequence selectivity of APOBEC3A implicates intra-DNA interactions”
